Data as given in publication PMC10144703, “Molecular Mechanism of Sirtuin 1 Inhibition by Human Immunodeficiency Virus 1 Tat Protein” (Life, 2023).
Where no end group is shown, it is not given here.

B1: Tat-Cys^−-(1–86), full-length HIV1 Tat (Zaire 2 isolate) with its 7 Cys residues replaced by Ser/Ala (natural protein)
chain: MDPVDPNIEPWNHPGSQPKTASNRAHAKKSAYHSQVAFITKGLGISYGRKKRRQRRRPSQGGQTHQDPIPKQPSSQPRGDPTGPKE
B2: ac-Tat-46–54 (peptide)
peptide: SYGRK(Ac)KRRQ
notes: HIV1 Tat, residues 46-54, acetylated at Lys50; also called Tat substrate peptide
B3: human mini-Sirt1 (aa 183-505-(GGGS)2-641-665) (enzyme)
chain: GPYTFVQQHLMIGTDPRTILKDLLPETIPPPELDDMTLWQIVINILSEPPKRKKRKDINTIEDAVKLLQECKKIIVLTGAGVSVSCGIPDFRSRDGIYARLAVDFPDLPDPQAMFDIEYFRKDPRPFFKFAKEIYPGQFQPSLCHKFIALSDKEGKLLRNYTQNIDTLEQVAGIQRIIQCHGSFATASCLICKYKVDCEAVRGDIFNQVVPRCPRCPADEPLAIMKPEIVFFGENLPEQFHRAMKYDKDEVDLLIVIGSSLKVRPVALIPSSIPHEVPQILINREPLPHLHFDVELLGDCDVIINELCHRLGGEYAKLCCNPVGGGSGGGSQYLFLPPNRYIFHGAEVYSDSEDDV
notes: artificial linker, printed as (GGGS)2; human Sirt1, residues 641-665 (ESA region); Modified pET-19b with TEV cleavage site; source: E. coli CodonPlus(DE3), purified (nickel NTA, protease digestion, second nickel NTA, SEC)

Assays:
Sirt2-(43-356) = target: T1, Sirt2-(43-356) (human, UniProt Q8IXJ6 43-356); assay: cell-based or functional assay
T1 sequence (looked up): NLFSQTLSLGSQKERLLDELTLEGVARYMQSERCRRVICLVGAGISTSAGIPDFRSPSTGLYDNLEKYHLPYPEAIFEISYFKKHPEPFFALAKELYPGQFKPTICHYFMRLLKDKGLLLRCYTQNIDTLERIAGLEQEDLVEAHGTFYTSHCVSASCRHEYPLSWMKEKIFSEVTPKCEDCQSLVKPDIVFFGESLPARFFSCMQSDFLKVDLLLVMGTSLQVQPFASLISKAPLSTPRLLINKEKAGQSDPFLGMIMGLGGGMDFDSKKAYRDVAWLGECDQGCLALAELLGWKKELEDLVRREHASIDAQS

[1] = target: Sirt3 (as used in the activity assays) (human); assay: cell-based or functional assay
human mini-Sirt1 (aa …) = target: B3; assay: cell-based or functional assay
human full-length Sirt1 = target: T2, human full-length Sirt1 (human, UniProt Q96EB6 1-747); assay: cell-based or functional assay
T2 sequence (looked up): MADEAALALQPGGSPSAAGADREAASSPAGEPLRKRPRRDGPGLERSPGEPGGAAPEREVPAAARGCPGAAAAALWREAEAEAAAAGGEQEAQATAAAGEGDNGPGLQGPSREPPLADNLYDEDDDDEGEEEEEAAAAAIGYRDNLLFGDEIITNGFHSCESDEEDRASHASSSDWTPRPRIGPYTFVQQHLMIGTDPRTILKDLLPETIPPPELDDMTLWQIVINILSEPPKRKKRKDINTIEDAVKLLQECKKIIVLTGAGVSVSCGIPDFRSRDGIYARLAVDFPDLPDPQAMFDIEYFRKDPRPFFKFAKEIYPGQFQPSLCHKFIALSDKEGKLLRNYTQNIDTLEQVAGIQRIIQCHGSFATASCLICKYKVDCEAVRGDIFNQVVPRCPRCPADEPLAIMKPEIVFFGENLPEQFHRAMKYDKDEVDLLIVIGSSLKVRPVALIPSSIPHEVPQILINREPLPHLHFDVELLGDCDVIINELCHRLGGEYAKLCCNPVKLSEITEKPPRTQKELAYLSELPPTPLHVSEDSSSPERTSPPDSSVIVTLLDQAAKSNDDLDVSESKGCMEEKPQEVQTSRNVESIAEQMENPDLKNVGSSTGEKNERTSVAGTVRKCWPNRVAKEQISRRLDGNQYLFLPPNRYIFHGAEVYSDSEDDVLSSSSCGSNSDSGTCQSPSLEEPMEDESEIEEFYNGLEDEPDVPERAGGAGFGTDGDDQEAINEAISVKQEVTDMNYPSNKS

human Sirt3-(118-399) = target: T3, human Sirt3-(118-399) (human, UniProt Q9NTG7 118-399); assay: crystal structure; 10 mg/mL Sirt3-(118-399) incubated with 2 mM peptide for 60 min at 20 °C; sitting-drop vapor diffusion at 20 °C (MES pH 6.0/PEG 200/PEG 3000 for ac-Tat-46-54; CHES pH 9.0/PEG 8000 for Tat-37-59); conditions: both partners purified
T3 construct: human Sirt3, residues 118-399; The construct used for crystallization; also called hSirt3-(118-399); source: E. coli CodonPlus(DE3), pVFT3S, purified (nickel NTA, protease digestion, second nickel NTA, SEC)
T3 sequence (looked up): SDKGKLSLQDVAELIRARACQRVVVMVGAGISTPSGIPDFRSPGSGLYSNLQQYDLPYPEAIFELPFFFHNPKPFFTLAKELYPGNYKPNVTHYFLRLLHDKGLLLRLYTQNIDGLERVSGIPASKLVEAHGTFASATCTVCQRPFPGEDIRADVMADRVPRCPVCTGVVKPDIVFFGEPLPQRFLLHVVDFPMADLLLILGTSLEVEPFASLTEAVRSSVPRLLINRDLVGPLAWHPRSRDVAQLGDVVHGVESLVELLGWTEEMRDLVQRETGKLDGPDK

[2] = target: B1; assay: NMR titration; unlabeled mini-Sirt1 (stock 260 µM) added stepwise to 100 µM 15N-labeled Tat-Cys^−; 150 mM sodium chloride, 10 mM potassium phosphate pH 6.4; 2D-(1H,15N)-HSQC at 298 K; conditions: both partners purified

Binder: B1
- inhibition of Sirt2 in the FdL assay at substrate Km; IC50 (Sirt2-(43-356)): 11 µM
- inhibition of Sirt3 in the FdL assay at substrate Km; IC50 [1]: 15.9 µM
- inhibition of mini-Sirt1 deacetylation of p53 substrate, coupled-enzyme assay at substrate Km; IC50 (human mini-Sirt1 (aa …)): 30 to 40 µM
- inhibition of mini-Sirt1 in the FdL assay at substrate Km; IC50 (human mini-Sirt1 (aa …)): 2.3 µM
- inhibition of fl-Sirt1 deacetylation of FdL substrate, FdL assay at substrate Km; IC50 (human full-length Sirt1): 3.6 µM
- inhibition of fl-Sirt1 deacetylation of a p53-derived peptide, coupled enzymatic assay, 100 µM substrate; IC50 (human full-length Sirt1): ~20 µM

Binder: B2
- binding result (human Sirt3-(118-399)): binds

Binder: B3
- binding result [2]: binds
